Patent publication US20220125947A1 (published 2022)

biological target: T1, γδ T cell receptor on human γδ T cells (human); test: flow cytometry, dose-response binding at 37 C on human γδ T cells
T1 construct: also called AG000003021 (γδ T cells)
Description: (§1) Binding of antibodies to human γδ T cells or SKW cell lines expressing Vγ9/Vδ2, Vγ9/Vδ2 or Vγ5/Vδ2 was carried out by flow cytometry. Briefly, the cells were centrifuged at 300×g for 5 minutes and the pellet was resuspended in 34 ml fresh media (in RPMI+10% FBS). 50 μL of the cells were then plated (44K cells/well) into assay plates. Samples were incubated for one hour at 37° C. in tissue culture (TC) incubator followed by wash steps by adding 100 μl FACS staining buffer. Secondary detention antibodies (A647 conjugated anti-human IgG Fc specific antibody (2 μg/mL) along with AF488 anti mouse CD3, clone OKT3 at 1 ug/mL) were added at 50 μL/well to appropriate wells according to the plate map. After incubating for 60 minutes at 37° C. in the TC incubator, cells were again washed as described above. This is followed by resuspension in 20 μL/well running buffer containing 1:1000 dilution of Sytox blue dead cell stain and the plates were run on iQue Screener.
(§2) Gating and data analysis: Human anti-human Vγ9 antibody (VG9B2 mAb at 10 nM) was used to mark the gating of positive population. All cells were first gated for singlets on SCS-A vs. SCS-H dot plot, live/dead followed by CD3 positive population, and this subset of CD3 positive population was gated for Vγ9 positive binding using positive control mAb. Cells were also assessed for cell binding of control mAbs by RL1 (A647) Geomeans from the live cell population. Advanced metrics were used and normalization metrics were chosen to calculate fold over background wells containing secondary antibody alone (designated as ‘background’ within ForeCyt settings).

Row | Binder | Max. Activity [fold over background]
1 | VG9B143 (antibody, human IgG1, lambda, V domains shown, IgG1, lambda; also called antibody #31) VH: EVQLVESGGGLVQPGGSLRLSCAASGFTFSTYGMNWVRQAPGKGLEWISYISTSSYTIYYSDSVKGRFTVSRDNAKNSLYLQMNSLRDEDTAVYYCAREGDWWYFDLWGRGTTVTVSS VL: QSALTQPASVSGSPGQSITISCTGTSSDVGGYNYVSWYQQHPGKAPKLMIYEVSNRPSGVSYRFSGSKSGNTASLTISGLQAEDEADYYCSSYTSSSTLVFGGGTKLTVLG | 2630
2 | VG9B417 (antibody, human IgG1, kappa, IgG1, kappa; also called antibody #27) heavy: not shown light: DIVMTQSPSSVSASVGDRVTITCRASQGINSWLAWYQQKPGNAPKLLIYAASSLQSGVPSRFSGIGSGTDFIFTISSLQPEDFASYYCQQANSFPWTFGQGTKVEIKRTVAAPSVFIFPPSDEQLKSGTASVVCLLNNFYPREAKVQWKVDNALQSGNSQESVTEQDSKDSTYSLSSTLTLSKADYEKHKVYACEVTHQGLSSPVTKSFNRGEC | 2700
3 | VG9B58 (antibody, human IgG1, kappa, V domains shown, IgG1, kappa; also called antibody #28) VH: QVQLQESGPGLVKPSETLSLTCTVSGGSIKSSYWTWIRQPPGKGLEWIGYMFYLGSTNYNPSLKSRVTMSIDTSRNQFSLKLSSVTAADTAVYYCSRERPVLDAFDIWGQGTMVTVSS VL: DIQMTQSPSAMSASVGDRVTITCRASQDITNYLAWFQQKPGKVPKRLIYAASSLQGGVPSRFSGSGSGTEFTLTISSLQPEDFSTYYCLQHDTYPYTFGQGTKVDIKR | 2690
4 | VG9B419 (antibody, human IgG1, kappa, IgG1, kappa; also called antibody #29) heavy: not shown light: EIVLTQSPGTLSLSPGDRATLSCRASQSVASSYLAWYQQKPGQSPRLLIYGASSRATGIPDRFSGSGSGTDFTLTISRLEPEDFAVYYCQQYGSSPPYTFGQGTKVEIKRTVAAPSVFIFPPSDEQLKSGTASVVCLLNNFYPREAKVQWKVDNALQSGNSQESVTEQDSKDSTYSLSSTLTLSKADYEKHKVYACEVTHQGLSSPVTKSFNRGEC | 2690

biological target: T2, γδ T cell receptor on human γδ T cells (human); test: flow cytometry DRC binding 37 C, human γδ T cells
T2 construct: whole, on cells; Target is the γδ TCR on a mixed population of human γδ T cells; also called AG000003021 (γδ T cells)
Description: as §1, §2

Row | Binder | Max. Activity [fold over background]
5 | VG9B47 (antibody, human IgG1, kappa, V domains shown, IgG1, kappa; specificity column: g/d constant) VH: QVQLVQSGAEVKKPGSSVKVSCKASGGSFSNYAISWMRQAPGQGLEWMGGIIPFFGTPDYAQKFQGRVTITADKSTSTAYMELSSLRSEDTAVYYCSTGGGYGDYDYYYGINVWGQGTMVTVSS VL: DIVMTQSPLSSPVDLGQPASISCRSSQSLVHSDGNTYLSWLQQRPGQPPRLLIYKISNRFSGVPDRFSGSGAGTDFTLKISRVEAEDVGVYYCMQAKEFPLTLGGGTKVDIKR | 1560
6 | VG9B96 (antibody, human IgG1, kappa, V domains shown, IgG1, kappa; specificity column: g/d constant) VH: EVQLVQSGAEVKKPGSSVKVSCKASGGTFSNYAISWVRLAPGQGLEWMGGIIPIFSAGTYAQRFQGRVTITADKSTSTAYMELNSLRSEDTAVYYCSSNSGTYYDYYYGMDVWGQGTMVTVSS VL: DIVMTQSPLSSHVTLGQPASISCRSSQSLVHSDGNTYLSWLQQRPGQPPRLLIYKIFNRLSGVPDRFSGSGAGTDFTLKISRVEAEDVGVYYCMQAKQFPLTFGGGTKVEIKR | 1020
7 | VG9B410 (antibody, human IgG1, kappa, IgG1, kappa; specificity column: g/d constant) heavy: not shown light: DIQMTQSPSSVSASVGDRVTITCRASQGINSWLAWYQQKPGNAPKLLIYAASSLQSGVPSRFSGIGSGTDFIFTISSLQPEDFASYYCQQANSFPWTFGQGTKVEIKRTVAAPSVFIFPPSDEQLKSGTASVVCLLNNFYPREAKVQWKVDNALQSGNSQESVTEQDSKDSTYSLSSTLTLSKADYEKHKVYACEVTHQGLSSPVTKSFNRGEC | 2250
8 | VG9B41 (antibody, human IgG1, kappa, V domains shown, IgG1, kappa; specificity column: Vd2) VH: QVQLQESGPQLVRPGASVKISCKASGYSFTTYWMHWVKQRPGQGLEWIGLIDPSDSETRLNQKFKDKATLTVDKSSSTAYMRLSSPTSEDSAVYYCASNRWLLGWGQGTMVTVSS VL: EIVLTQTPLSSPVTLGQPASISCRSSQSLVHSDGNTYLSWLHQRPGQPPRLLIYKISNRFSGVPDRFSGSGAGTDFTLKISRVETEDVGVYYCVQTREFPLTFGGGTKVEIKR | 137
9 | VG9B77 (antibody, human IgG1, kappa, V domains shown, IgG1, kappa; specificity column: g/d constant) VH: EVQLVESGAEVMKPGSSVKVSCKASGGTFSSYAISWVRQAPEQGLEWMGGIIPFFGTADYAQKFQGRVTITADKSTNTAYMELTSLRSEDTAVYYCATATVTTDYYYGMDVWGQGTMVTVSS VL: EIVMTQSPLFSPVTLGQPASISCRSSQSLVHSDGNTYLSWLQQRPGQPPRLLIYEISNRFTGVPDRFSGSGAGTDFTLKISRVEAEDVGVYYCMQARQFPLTFGGGTKVEIKR | 772
10 | VG9B136 (antibody, human IgG1, kappa, V domains shown, IgG1, kappa; specificity column: g/d constant) VH: QVQLQQSGPGLVKPSQTLSLTCAISGDSVSSNRAAWNWIRQSPSKGLEWLGRTYYRSKWYNEYAASVKSRMSINPDTSKNQFSLQLNSVTPEDTALYYCARDLWELREACDIWGQGTMVTVSS VL: DIVMTQSPSFLSTFVGDRVTITCRASQGISSYLAWYQQKPGKVPKLLIYVASTLQSGVPSRFSGSGSGTEFTLTISSLQPEDFATYYCQQLNSYPFTFGPGTKVDIKR | 2680
11 | VG9B112 (antibody, human IgG1, kappa, V domains shown, IgG1, kappa; specificity column: g/d constant) VH: QVQLQQSGPGLVKPSQTLSLTCAISGDSVSSNSAAWNWIRQSPSRGLEWLGGTYYRSKWFNNYAVSVKSRITINPDTSTNQFSLQLNSVTPADTAVYYCARGEWGLRDAFDIWGQGTMVTVSS VL: DIQMTQSPSFLSASVGDRVIITCRASQGIHSYLAWYQQKPGKVPKLLIYVASTLQSGVPSRFSGSGSGTEFTLTISSLQPEDFATYYCQQLNSYPWTFGQGTKLEIKR | 1990
12 | VG9B144 (antibody, human IgG1, lambda, V domains shown, IgG1, lambda; specificity column: g/d constant) VH: QVQLVQSGAEVKKPGASVKVSCKASGYTFTGYYMHWMRQAPGQGLEWMGWINPNSGATNKEQKFQGRVTMTRDTSISTAYMELSRLRSDDTAVYYCAREDDAFDVWGQGTMVTVSS VL: SSELTQDPAVSVALGQTVRITCQGDNLRNYYATWFQQKPGQAPVLVFFGKNNRPSGIPDRFSGSSSGDTASLTITGAQAEDEADYYCNSRDSSGNHVVFGGGTKLTVLG | 2430
13 | VG9B392 (antibody, human IgG1, lambda, V domains shown, IgG1, lambda; specificity column: g/d constant) VH: QVQLVQSGAEVKRPGASAKVSCKTSGYTFTGYYIHWVRQAPGQGLEWMGWINPNSGYTNSAQKFQGRVSMTRDTSISTVYMELSRLRSDDTAVYYCAREDDAFDIWGQGTLVTVSS VL: SSELTQDPAVSVALGQTVRITCQGDSLRSYYARWYQQKPGQAPVLVIYGKNNRPSGIPDRFSGSSSGDTASLTITGALAEDEADYYCNSRDNSGNHVVFGGGTKVTVLG | 1250
14 | VG9B387 (antibody, human IgG1, lambda, V domains shown, IgG1, lambda; specificity column: g/d constant) VH: EVQLVESGAEVKKPGASVKVSCKASGFTFTGYYLQWVRQAPGQGLEWMGWINPNSGYTDYAQRFQDRVTMTRDTSINTAYMELSRLRSDDTAVYYCARLDDAFDVWGQGTMVTVSS VL: SYELTQDPAVSVALGQTVRITCQGDSLRNYYAIWYQQKPGQAPVLVIFGKNNRPSGIPDRFSGSSSGTTASLTITGTQAEDEADYYCNSRDSSGNHWVFGGGTKLTVLG | 1970
15 | VG9B379 (antibody, human IgG1, lambda, V domains shown, IgG1, lambda; specificity column: g/d constant) VH: EVQLVQSGPEVKKPGASVKVSCKASGYTFTGDYIHWVRQVPGQGLEWMGWINPNSGGTNYAQKFQGRVTMTRDTSISTAFMELSRLRSDDTAVYYCAREGGVAPAAPDAFDIWGQGTMVTVSS VL: SSELTQDPAVSVALGQTVRITCQGDSLRSYYARWYQQKPGQAPVVVIYGKNNRPSGIPDRFSGSSSGNTASLTITGAQAEDEADYYCNSRDSSGNHRVFGGGTKLTVLG | 1460
16 | VG9B369 (antibody, human IgG1, kappa, V domains shown, IgG1, kappa; specificity column: g/d constant) VH: EVQLLESGPTLVKPTQTLTLTCTFSGFSLSTIGVGVGWIRQPPGKALEWLSLIYWNDDKRYNPSLKSRLTITKDTSKNQVVLTMTNMDPVDTATYYCAHSHDWVHAFDIWGQGTMVTVSS VL: DIVMTQSPSSLSASVGDRVTITCQASQDISHYLNWYQQKPGKAPKFLIYDASNLDTGVPSRFSGSGSGTDFTFTISSLQPEDIATYYCQQYDNFPLTFGGGTKVEIKR | 2430
17 | VG9B386 (antibody, human IgG1, kappa, V domains shown, IgG1, kappa; specificity column: g/d constant) VH: EVQLVESGGGLVKPGGSLRLSCAASGFTFSSYSMIWVRQAPGKGLEWVSSIGSSSTYIYYADSVRGRFTISRDNAKTSLYLQMNSLRAEDTAMYFCARDGETGGFDYWGQGILVTVSS VL: EIVMTQSPGTLSLSPGERATLSCRASQSISRSYLAWYQQKPGQPPRLLIYGPSNRATGIPDRFSASGSGTDFTLTNSRLEPEDFAVYYCQQYGSLPLTFGGGTKVEIKR | 2110
18 | VG9B447 (antibody, human IgG1, lambda, IgG1, lambda; specificity column: g/d constant) heavy: not shown light: SYELTQPASVSGSPGQSITISCTGTSSDVGGYNYVSWYQQHPGKAPKLMIYEVSNRPSGVSNRFSGSKSGNTASLTISGLQAEDEADYYCSSYTSTSVVFGGGTKLTVLGQPKAAPSVTLFPPSSEELQANKATLVCLISDFYPGAVTVAWKADSSPVKAGVETTTPSKQSNNKYAASSYLSLTPEQWKSHRSYSCQVTHEGSTVEKTVAPTECS | 1420
19 | VG9B125 (antibody, human IgG1, kappa, V domains shown, IgG1, kappa; specificity column: g/d constant) VH: EVQLVESGGTLVQPGGSLRLSCAVSGFTFSSYDMNWVRQAPGKGLEWVSYISSSSTAKYYADSVKGRFTISRDNAKNSLYLQMNSLWDEDTAVYYCAREDIVVVTPILQHWGQGTTVTVSS VL: EIVMTQSPATLSLSPGERAILSCRASQSVSKDLAWYQQKPGQAPRLLIYDASNRATGIPARISGSGSGTDFTLTISSLEPEDFAVYYCQQRINWPLFTFGPGTKVEIKR | 1990
